This is an account of results in PMC3492748.

The target in test [1] is geminin (Xenopus laevis (endogenous in eggs and embryos)) (UniProt O93352). Kind of test: co-IP.
Test [2] deals with Cdt1 (Xenopus laevis (endogenous in eggs and embryos)) (UniProt Q9I9A7). Kind of test: co-IP.

In the case of “Cdt1 (from UniProt Q9I9A7 1-617) (natural protein)”, in test [1], the decline of co-precipitation over 20 minutes after fertilisation is above 50%.

“geminin (from UniProt O93352 1-219) (natural protein)” returned a decline of co-precipitation over 20 minutes after fertilisation in test [2] above 50%.
